In patent US20240398964A1, “PEPTIDE FOR PENETRATING BLOOD-BRAIN BARRIER AND USE THEREOF” (NIBEC CO., LTD., priority 2021, published 2024):

B1: complex of Cy5.5-labeled SEQ ID NO: 17 peptide for penetrating the blood-brain barrier and SEQ ID NO: 59 antibody: complex of SEQ ID NO: 17 blood-brain barrier penetrating peptide and SEQ ID NO: 59 … (conjugate)
chain 1: VSRRRRRRGGRRRRVPALR
chain 2: MAWVWTLLFLMAAAQSIQAEWIKQRPGQGLEWIGVIHPGNGGTNYNENFKGKATLTADKSSSTAYMQLSSLTSDDSAVYFCASGNDGSYWGQGTTVTVSSGGGGSGKGGSGGGGSGGGGSDIELTQSPSSLTVTAGEKVTMSCKSSQSLLNSGDQKIYLTWYQQKPGQPPKLLIYWASTRESGVPDRFTGSVSGTDFTLTISSVQAEDLAVYYCQNDYNYPYTFGGGTKCLEIKRGSENLYFQGGSGKPIPNPLLGLDSTGGSGGSHHHHHH
modifications: Cy5.5 label; conjugated complex
B2: SEQ ID NO: 59 antibody: antibody represented by amino acid sequence of SEQ ID NO: 59, has therapeutic efficacy in glioblastoma (protein)
chain: MAWVWTLLFLMAAAQSIQAEWIKQRPGQGLEWIGVIHPGNGGTNYNENFKGKATLTADKSSSTAYMQLSSLTSDDSAVYFCASGNDGSYWGQGTTVTVSSGGGGSGKGGSGGGGSGGGGSDIELTQSPSSLTVTAGEKVTMSCKSSQSLLNSGDQKIYLTWYQQKPGQPPKLLIYWASTRESGVPDRFTGSVSGTDFTLTISSVQAEDLAVYYCQNDYNYPYTFGGGTKCLEIKRGSENLYFQGGSGKPIPNPLLGLDSTGGSGGSHHHHHH
B3: complex of CGGGG-SEQ ID NO: 41 peptide for penetrating the blood-brain barrier and SEQ ID NO: 59 antibody: SEQ ID NO: 41 peptide with N-terminal linker CGGGG chemically conjugated to antibody of SEQ … (conjugate)
chain 1: VSRRRRRRGGRRRRHAIYPRH
chain 2: MAWVWTLLFLMAAAQSIQAEWIKQRPGQGLEWIGVIHPGNGGTNYNENFKGKATLTADKSSSTAYMQLSSLTSDDSAVYFCASGNDGSYWGQGTTVTVSSGGGGSGKGGSGGGGSGGGGSDIELTQSPSSLTVTAGEKVTMSCKSSQSLLNSGDQKIYLTWYQQKPGQPPKLLIYWASTRESGVPDRFTGSVSGTDFTLTISSVQAEDLAVYYCQNDYNYPYTFGGGTKCLEIKRGSENLYFQGGSGKPIPNPLLGLDSTGGSGGSHHHHHH
modifications: N-terminal CGGGG linker; chemical conjugation

Columns and labels:
[1] = Brain delivery of peptide-antibody complex in normal animals (IVIS organ fluorescence, Optix MX3 3D brain image); type: in vivo, hairless mouse (SKH-1); conditions: Cy5.5 labeled, intravenous 4 mg/kg; for fluorescence in the brain (IVIS): FIG. 4(a); for extent of penetration into the brain (three-dimensional image): Optix MX3, FIG. 4(b)
Experimental: Cy5.5 labeled SEQ ID NO: 17 peptide for penetrating the blood-brain barrier, Cy5.5 labeled SEQ ID NO: 59 antibody, and the complex of Cy5.5-labeled SEQ ID NO: 17 peptide for penetrating the blood-brain barrier and SEQ ID NO: 59 antibody were injected intravenously at 4 mg/kg each to hairless mouse (SKH-1, female, 6 weeks old, OrientBio), and fluorescence in each organ (brain, liver, lung, spleen, kidney, heart) was measured at excitation: 685 nm and emission: 706 nm using IVIS (Perkin Elmer). In addition, three-dimensional images of the brain alone were measured using Optix MX3 (ART Advanced Research Technologies Inc.).

[2] = Concentration in blood and brain tissue of peptide-antibody complex in normal animals (IVIS); type: in vivo, hairless mouse (SKH-1)
Experimental: The control cell permeability peptide (TAT) and antibody of SEQ ID NO: 59 were prepared in the same manner as the expression method in Example 2 and labeled with cy5.5. The complex of the peptide for penetrating the blood-brain barrier of SEQ ID NO: 41 in which CGGGG was introduced in N term and the antibody of SEQ ID NO: 59 prepared in Example 2 was labeled labeled with Cy5.5. The antibody of SEQ ID NO: 59 was labeled with Cy5.5 and injected intravenously into hairless mouse (SKH-1, female, 6 weeks old, OrientBio) at 10 mg/kg each. Concentrations in brain and blood were measured at excitation: 685 nm and emission: 706 nm using IVIS (Perkin Elmer) until day 24, and the results are shown in FIG. 5.

[3] = tested on: U87MG-Luc 2 glioblastoma; test: Brain tumor animal model, bioluminescence and distribution at tumor site; type: in vivo, mouse; conditions: for bioluminescence of U87MG-Luc brain tumor cells: 1 mg/kg intravenous every 3 days, 4 doses, observed 16 days
Experimental: Using a brain tumor animal model, the ability of the complex of the peptide for penetrating the blood-brain barrier and antibody to penetrate the brain, inhibit brain tumors, and be distributed in the brain parenchyma was measured. Specifically, U87MG-Luc 2 (ATCC, HTB-14-LUC2™) cells, a luciferase-expressing U87MG glioblastoma, were cultured in DMEM medium supplemented with 10% FBS and 1% antibiotics. Nude 5- to 7-week-old mouse (Orient Bio) was anesthetized with isoflurane and immobilized using ear bars inside a stereotaxic instrument. After incising the scalp at the surgical site, a hole was made using a sterile drill 2 mm to the right to and 2 mm under the bregma. Then, 1.0×10^5/10 μL U87MG-Luc-2 cells were injected through the above hole with a 26G Hamilton syringe (1 μl/min), and after injection, the hole was closed with bone wax and sutured to close the scalp. The proliferation of transplanted glioblastoma was obtained by injecting D-luciferin potassium (15 mg/mL dissolved in PBS, sigma), a substrate of luciferase, at 150 mg/kg, to a mouse, and sacrificing it after 10 min, and measuring the bioluminescence using IVIS (Perkin Elmer), and the results are shown in FIG. 6.
Starting 4 days after glioblastoma transplantation, 1 mg/kg of the complex of CGGGG-SEQ ID NO: 41 peptide for penetrating the blood-brain barrier and SEQ ID NO: 59 antibody and 1 mg/kg SEQ ID NO: 59 antibody were injected intravenously. The administration interval between doses was every 3 days for a total of 4 doses for 16 days. […] FIG. 6 (a) is the photo of an IVIS observation of bioluminescence of U87MG-Luc cells on day 16. […] After 16 days of bioluminescence observation, the bioluminescence continued to increase in the glioblastoma transplanted and untreated group.
The complex of a peptide for penetrating the blood-brain barrier of CGGGG-SEQ ID NO: 41 labeled with cy5.5 and a SEQ ID NO: 59 antibody was administered to the same animal model 8 hours before sacrifice, and the brain was harvested. After frozen sectioning, the distribution of fluorescence was observed by confocal microscopy.

[4] = Cy5.5 labeled, intravenous 10 mg/kg

| Molecule | fluorescence in the brain (IVIS) [1] | extent of penetration into the brain (three-dimensional image) [1] | fluorescence in brain tissue [2, 4] | time to clearance from the blood ([2]; Cy5.5 labeled, intravenous 10 mg/kg, measured until day 24) | bioluminescence of U87MG-Luc brain tumor cells [3] | fluorescence in brain tissue, % of the initial dose ([2]; 4 days after intravenous injection, 10 mg/kg) | blood levels compared with the antibody linked to TAT [2, 4] | distribution of fluorescence in the brain (confocal, frozen sections) ([3]; cy5.5 labeled, administered 8 hours before sacrifice, FIG. 6(c)) |
| --- | --- | --- | --- | --- | --- | --- | --- | --- |
| VSRRRRRRRGGRRRRR-VPALR [SEQ ID NO: 17] | fluorescence could be observed in the brain | the extent of penetration into the brain was large | – | – | – | – | – | – |
| B1 | fluorescence could be observed in the brain | the extent of penetration into the brain was large | – | – | – | – | – | – |
| B2 | fluorescence was not observed in the brain | observed to a lesser extent inside the brain | no fluorescence was measured in brain tissue | ≤ 12 days | many brain tumor cells survived | – | – | – |
| B3 | – | – | – | – | the bioluminescence caused by brain tumor cells decreased | approximately 7% | higher | distributed in the area where the brain tumor occurred |
